Target: F-actin (actin filaments from rabbit skeletal muscle actin) (rabbit), P68135
Experiment: single-molecule TIRF microscopy
Details: remark: other sources report otherwise

B1: utrophin N-terminal fragment (amino acids 1 to 261)-sfGFP-6xHis, P46939 1-261 (domain or fragment)
chain: MAKYGEHEASPDNGQNEFSDIIKSRSDEHNDVQKKTFTKWINARFSKSGKPPINDMFTDLKDGRKLLDLLEGLTGTSLPKERGSTRVHALNNVNRVLQVLHQNNVELVNIGGTDIVDGNHKLTLGLLWSIILHWQVKDVMKDVMSDLQQTNSEKILLSWVRQTTRPYSQVNVLNFTTSWTDGLAFNAVLHRHKPDLFSWDKVVKMSPIERLEHAFSKAQTYLGIEKLLDPEDVAVQLPDKKSIIMYLTSLFEVLPQQVTID
modifications: here or on the partner: 30% DyLight-650 NHS ester-labelled and optionally 5% biotinylated (EZ-Link NHS-PEG4-biotin) actin
Question: Which fold landing frequency on F-actin against mN2G^SR does the source give for B1 here?
Answer: 20 fold

Source: PMC11844729
